The text below walks through data of US20050130232A1, “Methods of screening for compounds that modulate hormone receptor activity” (Allergan, Inc., priority 2001, published 2005).

Data set [1] has as its target protein kinase A activity endogenous to HEK 293 cells (co-immunoprecipitated with tagged RXRα). The data set is described as follows: cell-based or functional assay.
For data set [2], the system named is protein kinase A. The following applies: specific PKA substrate; cited from earlier work.
The test system of data set [3] is protein kinase A. The experiment in a line: Km of synthetic peptide substrates for protein kinase A. The data set is classed as biochemical.
The subject of data set [4] is protein kinase A activity associated with RXRα. The data set is described as follows: Protein kinase A activity in anti-Flag immunoprecipitates of PH-RXRα or RXRα transfected HEK 293 cells, synthetic peptide substrate. Type of data set: cell-based, human. The following applies: PH-RXRα, ligand-treated cells, inhibitor added to kinase reaction, substrate LRRASLG. The method, then: 293 cells were transfected with PH-RXRα. Sample 1: 0.1% DMSO (10 minutes). […] Sample 3: 0.1% DMSO (30 minutes).
Sample 1: 0.1% DMSO (10 minutes). […] Sample 3: 0.1% DMSO (30 minutes). […] Sample 5: No immunoprecipitate.
Sample 1: 0.1% DMSO. […] Sample 3: 0.1% DMSO with PKA inhibitor. […] Sample 5: 0.1% DMSO.
Following immunoprecipitation with anti-Flag antibody, the synthetic PKA substrate, LRRASLG (SEQ ID NO: 59), was added to the immunoprecipitate along with γ-ATP.
HEK 293 were cultured and transfected essentially as described above. Immunoprecipitates were prepared using the anti-Flag antibody, M2, as described above. Assays for protein kinase A activity were performed as follows. Immunoprecipitated complexes were resuspended in 40 μl of Kinase Assay Buffer (30 mM Tris-HCl, pH 7.4 and 10 mM MgCl2). Kinase reactions were initiated by addition of 10 μl of 500 μM synthetic peptide LRRASLG (SEQ ID NO: 59) or […] (SEQ ID NO: 60) prepared by Upstate Biotechnology (Lake Placid, N.Y.) and addition of 50 μM [γ-^32P]ATP (10 μCi) to the immune-complexes. […]
Incorporated ^32P was separated from free label by applying the reaction mixture onto P81 phosphocellulose paper and subsequently washing the paper three times with 0.75% phosphoric acid and once with acetone. Protein kinase reaction samples were analyzed in a scintillation counter to determine the amount of ^32P-incorporation.

Data set [5] addresses T1, RXRα phosphorylation by protein kinase A (Homo sapiens, UniProt P19793).
T1 construct: host or cells: HEK293
T1 sequence (P19793 1-462): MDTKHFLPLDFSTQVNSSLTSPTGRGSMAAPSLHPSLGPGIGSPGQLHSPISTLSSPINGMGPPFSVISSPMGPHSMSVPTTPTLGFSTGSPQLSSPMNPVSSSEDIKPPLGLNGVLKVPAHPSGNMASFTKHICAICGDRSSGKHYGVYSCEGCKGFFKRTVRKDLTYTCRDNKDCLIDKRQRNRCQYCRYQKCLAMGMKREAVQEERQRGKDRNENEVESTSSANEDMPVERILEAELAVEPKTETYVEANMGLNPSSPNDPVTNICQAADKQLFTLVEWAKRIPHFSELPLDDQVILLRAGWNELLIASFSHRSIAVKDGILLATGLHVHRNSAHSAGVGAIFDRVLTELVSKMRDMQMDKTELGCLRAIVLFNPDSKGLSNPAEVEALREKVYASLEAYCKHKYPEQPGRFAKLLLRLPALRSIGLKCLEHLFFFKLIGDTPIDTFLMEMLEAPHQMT
The experiment in a line: Phosphorylation of immunoprecipitated RXRα by purified PKA. The data set is classed as biochemical. The following applies: inhibitor added to kinase reaction. The method, then:
Left panel: Cells were immunoprecipitated with anti-FLAG antibody, and the immunoprecipitates analyzed by SDS-PAGE and blotting with anti-PKA antibody. Right panel: Cells were immunoprecipitated with anti-PKA antibody, and the immunoprecipitates analyzed by SDS-PAGE and blotting with anti-FLAG antibody. B. Phosphorylation of RXRα by PKA. […] PKA I and PKC I indicate inhibitors of PKA and PKC, respectively.
RXRα-containing immunoprecipitates prepared with anti-Flag antibody were incubated with purified catalytically active PKA (Upstate Biotechnology) and […]; in addition, protein kinase A inhibitor or protein kinase C inhibitor was added to some reactions as indicated. The kinase reaction products were analyzed by SDS-PAGE.

The target in data set [6] is protein kinase A activity endogenous to 3T3-L1 adipocytes. The experiment in a line: cell-based or functional assay.
For data set [7], the target named is Flag-tagged PH-RXRα (Flag tag, pleckstrin homology domain of human insulin receptor substrate-1, human RXRα) (UniProt P35568).
In data set [8] the test system is T2, Flag-RXRα (human retinoid X receptor α fused to the Flag epitope tag).
T2 sequence: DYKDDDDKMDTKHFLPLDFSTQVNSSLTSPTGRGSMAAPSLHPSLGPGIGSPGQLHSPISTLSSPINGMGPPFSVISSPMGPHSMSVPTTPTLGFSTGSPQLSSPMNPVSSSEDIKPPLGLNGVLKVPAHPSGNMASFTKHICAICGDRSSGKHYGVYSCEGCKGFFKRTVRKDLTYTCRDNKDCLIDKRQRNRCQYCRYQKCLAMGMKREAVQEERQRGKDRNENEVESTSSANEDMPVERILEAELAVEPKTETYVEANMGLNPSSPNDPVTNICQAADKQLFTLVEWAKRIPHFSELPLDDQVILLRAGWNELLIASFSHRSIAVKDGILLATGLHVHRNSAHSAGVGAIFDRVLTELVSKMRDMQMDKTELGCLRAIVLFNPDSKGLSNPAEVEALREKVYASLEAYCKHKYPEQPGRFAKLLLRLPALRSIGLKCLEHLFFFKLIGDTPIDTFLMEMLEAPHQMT

Usually Km stands for the substrate concentration at which the rate is half of its maximum.

“Flag-tagged PH-RXRα (Flag tag, pleckstrin homology domain of human insulin receptor substrate-1, human RXRα) (from UniProt P35568 12-115)” returned a protein kinase A activity in anti-FLAG immunoprecipitates (32P incorporation into …), AGN194204-treated against DMSO-treated cells in data set [1] of more than 2 fold. As for “GRTGRRNSI [SEQ ID NO: 60, specific protein kinase A substrate]”, in the data set on protein kinase A [2], the Km was 0.11 µM. In the data set on protein kinase A [3] (relative to kemptide), the “fold higher Vmax than kemptide” value is “about 2 fold”. Further, the “fold lower Km than kemptide” value in the data set on protein kinase A [3] (relative to kemptide (SEQ ID NO: 59)) is “approximately 40 fold”.

With RFARKGALRGKNV, the “inhibition of RXRα-associated PKA activity” value in data set [4] is given as “not”. Moreover, in data set [5], the “inhibition of RXRα phosphorylation by purified PKA” value was “not”. As for “endogenous RXRα of untransfected 3T3-L1 adipocytes (from UniProt P28700 1-467) (receptor)”, the PKA activity in anti-RXRα (D20) immunoprecipitates (32P incorporation into SEQ ID NO: 59), ligand-treated against vehicle-treated cells in data set [6] turned out to be 2 fold. Turning to “protein kinase A activity endogenous to HEK 293 cells (co-immunoprecipitated with tagged RXRα)”, the “protein kinase A activity in anti-Flag immunoprecipitates (32P incorporation into LRRASLG)” value in data set [7] was “significantly more protein kinase A activity was detected in immunoprecipitates from cells treated with AGN194024 ligand than in immunoprecipitates treated with control vehicle”; in data set [8], “protein kinase A activity associated with RXRα lacking a fused pleckstrin homology domain was significantly enhanced in cells treated with 10^-7 M AGN194204 as compared to control vehicle”. In the case of “purified catalytically active PKA (Upstate Biotechnology)”, the “in vitro phosphorylation of immunoprecipitated RXRα by purified PKA (SDS-PAGE)” value in data set [8] was “RXRα was phosphorylated, and the extent of phosphorylation was increased by addition of RXRα ligand, AGN194204”.
